The text below walks through data of PMC5037179 (Frontiers in Molecular Biosciences, 2016).

The target in assay [1] is IscU (Escherichia coli) (UniProt P0ACD4). The note with it: cited from earlier work.
The target of assay [2] is T1, IscS (E. coli, UniProt P0A6B7 1-404).
T1 construct: IscS, pyridoxal phosphate dependent cysteine desulfurase of the isc operon, E. coli; subcloned by PCR from bacterial genomic DNA; For MST only, IscS was labelled with the amine-reactive dye NT-647 (about 0.67 dye molecules per IscS, RED-NHS kit); unlabelled in all other experiments; also called desulfurase IscS; wild-type IscS; source: E. coli BL21(DE3), purified (Ni-NTA, TEV cleavage, gel …)
T1 sequence (P0A6B7 whole entry): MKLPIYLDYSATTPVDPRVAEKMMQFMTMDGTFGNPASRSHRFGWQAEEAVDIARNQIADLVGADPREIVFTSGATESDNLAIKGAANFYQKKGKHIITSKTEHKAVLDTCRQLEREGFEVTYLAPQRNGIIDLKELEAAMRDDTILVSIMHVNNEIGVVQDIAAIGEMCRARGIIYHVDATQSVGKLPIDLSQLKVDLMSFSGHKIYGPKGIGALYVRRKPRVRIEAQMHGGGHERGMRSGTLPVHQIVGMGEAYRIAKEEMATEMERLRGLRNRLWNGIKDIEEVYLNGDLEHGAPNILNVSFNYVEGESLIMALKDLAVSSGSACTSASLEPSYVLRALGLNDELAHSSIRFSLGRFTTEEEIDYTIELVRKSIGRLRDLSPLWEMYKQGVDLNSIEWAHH
Briefly: NMR titration; competition: 15N HSQC of 100 uM 15N-labelled HscB in complex with unlabelled IscS (1:1), titrated with CyaY or apo-Fdx up to 1:1:3. The note with it: both partners purified.

Assay [3] has as its target T1, IscS. Briefly: MST; IscS labelled with NT-647 at 52 nM, HscB serially diluted 1:1 from 600 uM (12 solutions); 20 mM Tris-HCl pH 8, 150 mM NaCl, 0.5 mM TCEP, 0.05% Tween-20; 25 C; 40-60% LED power, 17% IR-laser power; 1:1 stoichiometry assumed. The note with it: both partners purified.

Sequence of IscU (Escherichia coli) (P0ACD4 whole entry): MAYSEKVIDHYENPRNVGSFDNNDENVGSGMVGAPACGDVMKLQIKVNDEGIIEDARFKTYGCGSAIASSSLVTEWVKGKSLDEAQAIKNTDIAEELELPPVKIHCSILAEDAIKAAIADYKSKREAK

Regarding IscS (from UniProt P0A6B7), the Kd in assay [1] was 10 µM.

B1: apo-Fdx (natural protein, E. coli, UniProt P0A9R4 1-111, looked up)
chain: MPKIVILPHQDLCPDGAVLEANSGETILDAALRNGIEIEHACEKSCACTTCHCIVREGFDSLPESSEQEDDMLDKAWGLEPESRLSCQARVTDEDLVVEIPRYTINHAREH
notes: Fdx, ferredoxin of the isc operon, E. coli; subcloned by PCR from bacterial genomic DNA; also called ferredoxin; source: E. coli BL21(DE3), purified (Ni-NTA, TEV cleavage, gel filtration)
In the case of B1, in assay [2], the binding result is given as “binds”.

B2: HscB (natural protein, E. coli)
chain: MDYFTLFGLPARYQLDTQALSLRFQDLQRQYHPDKFASGSQAEQLAAVQQSATINQAWQTLRHPLMRAEYLLSLHGFDLASEQHTVRDTAFLMEQLELREELDEIEQAKDEARLESFIKRVKKMFDTRHQLMVEQLDNETWDAAADTVRKLRFLDKLRSSAEQLEEKLLDF
notes: HscB, co-chaperone of the isc operon, E. coli; subcloned by PCR from bacterial genomic DNA; Uniformly 15N-labelled (HSQC) or 2H,15N-labelled (cross saturation) for NMR; unlabelled in MST, cross-linking and when added to 15N IscU; also called co-chaperone HscB; source: E. coli BL21(DE3), purified (Ni-NTA, TEV cleavage, gel filtration)
Consider B2, for which the Kd in assay [3] was 10 to 30 µM.
